Legend:
[1] = test system: Grb2 and Grb10 and Nck recruitment to EphB1 complexes; assay: Recruitment of SH2-containing adapter proteins to EphB1 complexes; type: cell-based
Method: Ligand stimulation and immunoprecipitation of endogenous EphB receptors. Primary HRMEC were used at passages 3-6, as described (12). P19 cells were cultured as recommended (ATCC, Rockville, Md.). Ninety min prior to ligand stimulation, cells (2×10^5cells/60 mm dish) were plated on Matrigel-(Collaborative Biomedical Products, Becton Dickinson, Bedford, Mass., as recommended) or fibronectin-coated (29) dishes. Ligand (ephrin-B1/Fc) or control (ORF/Fc) (30) multimers were generated by preincubation with anti-Fc at a fixed ratio of 0.1× the indicated concentrations of Fc fusion proteins [50 ng ml^−1 anti-Fc for 500 ng ml^−1 Fc fusion protein]. If not otherwise indicated, Fc fusion proteins (ephrinB1/Fc or ORF/Fc) were used at 500 ng ml^−1 in the absence or presence of preclustering anti-Fc at 50 ng ml^−1. Cells were incubated with agonists at 37° C. for 10 min, or as described in the figure legends. […] Precipitated proteins were analyzed by immunoblot (15).
It was reasoned that alternative signaling responses mediated through EphB receptors might reflect differential association of additional receptor signaling complex components. […] Accordingly, EphB1 immunoprecipitates were analyzed for LMW-PTP immunoreactivity (11,17).

[2] = test system: human renal microvascular endothelial cells; assay: Solid phase cell attachment assay (HRMEC); type: cell-based
Method: Solid phase cell attachment assays. Forty-eight-well plates (Falcon) were coated with a layer of nitrocellulose (Schleicher & Schuell) and allowed to air dry as described (47). Coated wells were incubated overnight at 4° C. with PBS containing matrix proteins at the indicated concentrations alone (no addition, NA) or in combination with dimeric EphrinB1/Fc. Two hours prior to assay, wells were washed twice then blocked at 37° C. with 1% BSA. Serum starved cells were harvested in 2 mM EDTA in PBS (HEK293) or recovered by trypsinization (HRMEC), washed twice in serum free medium containing 1% BSA, then plated at a density of 0.7-1×10^5 cells per well. After incubation at 37° C. for 1 hour (or as specified), unattached cells were dislodged by 5 brisk slaps of the plate on a horizontal surface. Wells were gently washed with PBS until cells were not adherent to albumin-coated wells. Adherent cells were fixed with 2% glutaraldehyde, stained with 0.5% crystal violet (in EtOH), and quantified by OD reading at 570 nm. In experiments using competitive peptides or blocking antibodies, cells were preincubated with the indicated peptides (100 μM) or antibodies (10 μg/ml) for 15 min at RT before plating. Results representative of three independent experiments are given as OD values and represent the mean of duplicate or triplicate wells±SEM.
To determine if this ephrin-B1 surface density effect was mediated through integrins, a defined RGD peptide, GRGDSPK (SEQ ID NO:3), was applied to the surfaces in the absence and presence of ephrin-B1/Fc, or IgG1. Attachment assays of serum-starved microvascular endothelial cells to GRGDSPK (SEQ ID NO:3)-coated 48-well-plates were performed as described herein. Cells were preincubated for 15 min at 22° C. with blocking peptides (100 uM) or anti-integrin antibodies (10 ug/ml) before plating. Similar results were obtained using fibrinogen (1 ug/cm^2). HEK293 cells were transiently transfected with pSRα-EphB1 and attachment assays were performed after 48 hours as described herein.

P19 cells = assay: P19 attachment to nitrocellulose coated surfaces preadsorbed with ligand and fibronectin; type: cell-based, murine; conditions: 500 ng/well ligand with fibronectin 500 ng/well on nitrocellulose, 90 min at 37° C.
Method: Specifically, nitrocellulose coated surfaces were preadsorbed with 500 ng/well of non-denatured ephrin-B1/Fc, either as dimer (LERK-2/Fc) or preclustered multimer (LERK2/FC+anti-Fc) or control protein (anti-Fc, BSA), with fibronectin (500 ng/well). P19 cells were plated and the % attached cells were assayed after a 90 min incubation at 37° C.

[3] = fibrinogen-coated nitrocellulose surfaces

B1: ephrin-B1/Fc dimers: disulfide-linked immunoglobulin Fc fusion form of ephrin-B1 (protein)
chain: LAKNLEPVSWSSLNPKFLSGKGLVIYPKIGDKLDIICPRAEAGRPYEYYKLYLVRPEQAAACSTVLDPNVLVTCNRPEQEIRFTIKFQEFSPNYMGLEFKKHHDYYITSTSNGSLEGLENREGGVCRTRTMKIIMKVGQDPNAVTPEQLTTSRPSKEADNTVKMATQAPGSRGSLGDSDGKHETVNQEEKSGPGASGGSSGDPDGFFNSK
modifications: left off: a dimerising Fc or GST
[1]
  recruitment of Grb2, Grb10 and Nck to EphB1 complexes, dimeric vs multimeric ligand: did not differ
[2]; alone or in the presence of fibrinogen, no nitrocellulose
  endothelial cell attachment, plates pre-coated using standard procedures: did not promote cell attachment
[2]; [3]
  cell attachment at densities higher than 300 ng/cm^2: sharp decline
  coating density evoking maximal cell attachment: 300 ng/cm^2
[2]; non-denaturing conditions, with fibrinogen, compared with Fc control human IgG1
  endothelial attachment, ligand adsorbed to nitrocellulose-coated surfaces: promoted endothelial attachment
P19 cells
  attachment of cells in preadsorbed wells: approximately 40%
